94 variants from the supplement of paper PMC10567573 can be followed below.

First the molecules themselves.
B1: CDC25B (parent)
chain: FVDILESDLKDDDAVPPGMESLIS
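Also: lentivirally expressed fusions sorted by FACS into six bins by GFP to DsRed ratio, PSI derived from sequencing read proportions per bin multiplied by bin number.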

Variants of B1 are the subject of the data set. Briefly: protein stability index of a GFP-peptide fusion (GPS, HEK-293T) (PSI 1-6); higher = more stable. The following applies: c terminus: a fixed tail appended.
Consider FVDILESDLKSDDAVPPGMESLIS, for which the protein stability index was found to be 2.94. For FVDILESDLKWDDAVPPGMESLIS, the protein stability index is 1.8. For FVDILESDLKTDDAVPPGMESLIS the value was 3.28. For FVDILESDLKYDDAVPPGMESLIS the value was 2.71; for FVDILESDLKQDDAVPPGMESLIS, 2.51. To FVDILESDLKVDDAVPPGMESLIS belongs 2.61; to FVDILESDLKKDDAVPPGMESLIS, 3.02.

Turning to FVDILESDLKHDDAVPPGMESLIS, the protein stability index was determined as 2.37. To FVDILESDLKCDDAVPPGMESLIS belongs 2.25; to FVDILESDLKRDDAVPPGMESLIS, 2.25; to FVDILEQDLKDDDAVPPGMESLIS, 3.19. With FVDILERDLKDDDAVPPGMESLIS, the protein stability index stood at 2.47. To FVDILENDLKDDDAVPPGMESLIS belongs 2.57; to FVDILEVDLKDDDAVPPGMESLIS, 2.17; to FVDILEWDLKDDDAVPPGMESLIS, 1.36. To FVDILETDLKDDDAVPPGMESLIS belongs 2.85; to FVDILEPDLKDDDAVPPGMESLIS, 2.83; to FVDILEYDLKDDDAVPPGMESLIS, 2.77. For FVDILESQLKDDDAVPPGMESLIS the value was 2.67; for FVDILESCLKDDDAVPPGMESLIS, 2.15.

Turning to FVDILESYLKDDDAVPPGMESLIS, the protein stability index was 2.62.

As for FVDILESPLKDDDAVPPGMESLIS, the protein stability index worked out at 2.31. For FVDILESHLKDDDAVPPGMESLIS the value was 2.79. To FVDILESSLKDDDAVPPGMESLIS belongs 2.38. For FVDILESILKDDDAVPPGMESLIS the value was 2.56; for FVDILESRLKDDDAVPPGMESLIS, 2.7; for FVDILESVLKDDDAVPPGMESLIS, 2.7. In the case of FVDILESWLKDDDAVPPGMESLIS, the protein stability index amounted to 2.54. To FVDILESALKDDDAVPPGMESLIS belongs 2.58. For FVDILESKLKDDDAVPPGMESLIS the value was 2.48; for FVDILESGLKDDDAVPPGMESLIS, 2.93. For FVDILESTLKDDDAVPPGMESLIS the value was 2.66; for FVDILESLLKDDDAVPPGMESLIS, 2.9. Regarding FVDILESFLKDDDAVPPGMESLIS, the protein stability index came out at 2.32. For FVDILESNLKDDDAVPPGMESLIS the value was 3.18; for FVDILESELKDDDAVPPGMESLIS, 2.89. To FVDILESMLKDDDAVPPGMESLIS belongs 2.55. To FVDILESDLKDKDAVPPGMESLIS belongs 2.78; to FVDILESDLKDYDAVPPGMESLIS, 2.69. Consider FVDILESDLKDSDAVPPGMESLIS, for which the protein stability index was 2.96. To FVDILESDLKDMDAVPPGMESLIS belongs 2.08; to FVDILESDLKDQDAVPPGMESLIS, 2.62; to FVDILESDLKDIDAVPPGMESLIS, 2.21. To FVDILESDLKDFDAVPPGMESLIS belongs 2.19. FVDILESDLKDCDAVPPGMESLIS: the protein stability index worked out at 2.5. On to FVDILESDLKDHDAVPPGMESLIS, for which the protein stability index came out at 2.88. FVDILESDLKDTDAVPPGMESLIS: the protein stability index was determined as 2.65. For FVDILESDLKDGDAVPPGMESLIS the value was 3.01; for FVDILESDLKDWDAVPPGMESLIS, 1.83; for FVDILESDLKDVDAVPPGMESLIS, 2.56. On to FVDILESDLKDEDAVPPGMESLIS, for which the protein stability index is 2.93. To FVDILESDLKDLDAVPPGMESLIS belongs 2.9. To FVDILESDLKDNDAVPPGMESLIS belongs 2.67; to FVDILESDLKDRDAVPPGMESLIS, 2.16; to FVDILESDLKDPDAVPPGMESLIS, 2.66. To FVDILESDLKDADAVPPGMESLIS belongs 2.84.

For FVDILESDLKDDDAVIPGMESLIS, the protein stability index came to 2.44. For FVDILESDLKDDDAVQPGMESLIS the value was 2.79. FVDILESDLKDDDAVNPGMESLIS: the protein stability index amounted to 3.23. To FVDILESDLKDDDAVRPGMESLIS belongs 2.59; to FVDILESDLKDDDAVFPGMESLIS, 2.06; to FVDILESDLKDDDAVSPGMESLIS, 2.88. To FVDILESDLKDDDAVHPGMESLIS belongs 3.14. Take FVDILESDLKDDDAVLPGMESLIS: the protein stability index was 2.76. For FVDILESDLKDDDAVCPGMESLIS the value was 2.68; for FVDILESDLKDDDAVMPGMESLIS, 2.6. To FVDILESDLKDDDAVEPGMESLIS belongs 3.04; to FVDILESDLKDDDAVKPGMESLIS, 3. For FVDILESDLKDDDAVVPGMESLIS the value was 3.07; for FVDILESDLKDDDAVAPGMESLIS, 2.98. In the case of FVDILESDLKDDDAVGPGMESLIS, the protein stability index came to 3.02. For FVDILESDLKDDDAVYPGMESLIS the value was 2.82. For FVDILESDLKDDDAVTPGMESLIS the value was 2.98; for FVDILESDLKDDDAVWPGMESLIS, 2.52; for FVDILESDLKDDDAVDPGMESLIS, 3.62.

As to FVDILESDRKDDDAVPPGMESLIS, the protein stability index amounted to 3.08. To FVDILESDHKDDDAVPPGMESLIS belongs 3.33; to FVDILESDCKDDDAVPPGMESLIS, 3.05; to FVDILESDMKDDDAVPPGMESLIS, 3.03.

With FVDILESDQKDDDAVPPGMESLIS, the protein stability index was found to be 3.18.

With FVDILESDAKDDDAVPPGMESLIS, the protein stability index came to 3.09. For FVDILESDGKDDDAVPPGMESLIS the value was 3.05; for FVDILESDNKDDDAVPPGMESLIS, 3.67.

As to FVDILESDYKDDDAVPPGMESLIS, the protein stability index was 3.18. For FVDILESDPKDDDAVPPGMESLIS the value was 3.62; for FVDILESDEKDDDAVPPGMESLIS, 3.39; for FVDILESDKKDDDAVPPGMESLIS, 3.4.

For the variant FVDILESDDKDDDAVPPGMESLIS, the protein stability index was found to be 3.21. For FVDILESDIKDDDAVPPGMESLIS the value was 3.05; for FVDILESDWKDDDAVPPGMESLIS, 2.97; for FVDILESDSKDDDAVPPGMESLIS, 3.36. To FVDILESDFKDDDAVPPGMESLIS belongs 2.85. As for FVDILESDTKDDDAVPPGMESLIS, the protein stability index is 3.23. FVDILESDVKDDDAVPPGMESLIS: the protein stability index worked out at 2.93.
